Measured values from PMC12186880.

Biological target: adenine base editing engineered ribonucleoprotein (BE-eRNP): bipartite NLS-TadA(8.20-m)-linker-nCas9(D10A, C80A)-bipartite NLS protein complexed with sgRNA (Escherichia coli | Streptococcus pyogenes)
Assay: native gel or EMSA

- stoichiometry N: 2
Substance: adenine base editing engineered ribonucleoprotein (BE-eRNP): bipartite NLS-TadA(8.20-m)-linker-nCas9(D10A, C80A)-bipartite NLS protein complexed with sgRNA (enzyme)
